From US5534409, “Cytokine regulated transcription factor” (Ciba-Geigy Corporation) come the findings set out here.

For the data set, the target named is T1, MGF (mammary gland factor, STAT5), native from lactating mammary gland (Ovis aries, UniProt P42231 SEQ:1-794).
T1 chain: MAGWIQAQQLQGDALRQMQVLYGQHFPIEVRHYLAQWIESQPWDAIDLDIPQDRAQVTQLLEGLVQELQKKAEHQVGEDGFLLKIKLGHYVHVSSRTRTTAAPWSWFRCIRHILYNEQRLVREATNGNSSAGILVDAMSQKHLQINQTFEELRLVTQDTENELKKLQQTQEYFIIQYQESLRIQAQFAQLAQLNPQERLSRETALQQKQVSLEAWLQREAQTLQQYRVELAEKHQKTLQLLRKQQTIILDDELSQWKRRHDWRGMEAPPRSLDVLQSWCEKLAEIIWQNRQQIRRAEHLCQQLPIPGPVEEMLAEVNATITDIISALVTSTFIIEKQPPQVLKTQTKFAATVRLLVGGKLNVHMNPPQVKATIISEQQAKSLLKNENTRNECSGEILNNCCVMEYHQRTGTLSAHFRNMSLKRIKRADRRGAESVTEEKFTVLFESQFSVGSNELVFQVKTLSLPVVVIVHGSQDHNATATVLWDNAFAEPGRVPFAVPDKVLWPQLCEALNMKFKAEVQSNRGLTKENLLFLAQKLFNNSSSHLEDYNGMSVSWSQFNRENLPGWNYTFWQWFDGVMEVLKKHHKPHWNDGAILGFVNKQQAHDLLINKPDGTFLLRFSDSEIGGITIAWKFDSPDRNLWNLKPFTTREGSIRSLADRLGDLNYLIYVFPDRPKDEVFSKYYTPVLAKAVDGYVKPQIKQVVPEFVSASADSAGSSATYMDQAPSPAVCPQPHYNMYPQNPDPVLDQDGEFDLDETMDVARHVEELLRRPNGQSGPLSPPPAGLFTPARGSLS
Briefly: EMSA; binds more efficiently than rat site; also used for DNA affinity column, eluted at 600 mM NaCl; binding abolished by tyrosine phosphatase PTP1B, not by PP1C or. The following applies: tags: none; 84 and 92 kDa bands, tyrosine phosphorylated.

B1: bovine beta-casein MGF site (dsDNA)
DNA 1: AGATTTCTAGGAATTCAATCC
DNA 2: GGATTGAATTCCTAGAAATCT
Turning to B1, the binding result was “binds”.
